Here are results for eleven molecules from patent US20240132580A1 (DOTBIO PTE, published 2024).

The labels stand for the following.
T1: Human VEGF-121 (Acro Biosystems) (human, UniProt P15692 207-395)
T1 construct: Bought protein; also called human VEGFA
T1 sequence: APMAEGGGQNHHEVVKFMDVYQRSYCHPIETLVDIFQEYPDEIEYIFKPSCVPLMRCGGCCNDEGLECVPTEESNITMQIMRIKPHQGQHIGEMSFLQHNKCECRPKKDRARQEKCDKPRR

T2: Biotinylated murine VEGF-164 (Acro Biosystem) (mouse, UniProt Q00731-2 27-190, biotinylated (site not stated))
T2 construct: Bought protein; also called Mouse VEGF164; mouse VEGFA
T2 sequence (looked up): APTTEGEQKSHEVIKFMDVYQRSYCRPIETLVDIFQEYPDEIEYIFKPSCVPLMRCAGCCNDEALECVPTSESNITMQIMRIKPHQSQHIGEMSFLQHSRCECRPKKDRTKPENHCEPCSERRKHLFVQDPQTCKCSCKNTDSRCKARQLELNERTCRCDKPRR

B1: 23D5.1 (VHH)
VHH: EVQLVESGGGLVQPGGSLRLSCAISGFDLATTDIDWVRQAPGKGLEWVARIFRPSDFTDYADSVKGRFTISADTSKNTVYLQMNSLRAEDTAVYYCVRPDSYAYNILFVTRTFNALHYRGQGTLVTVSS
notes: Autonomous humanised VH domain (DotBody), from the 16C2.1-based library without heat challenge; E. coli, ATG codon 5' (possible initiator Met), 3' hexahistidine tag; also called DotBody 23D5.1
B2: 21D9.1 (VHH)
VHH: EVQLVESGGGLVQPGGSLRLSCAISGFSLGATDIDWVRQAPGKGLEWVARIFSPSDFTDYADSVKGRFTISADTSKNTVYLQMNSLRAEDTAVYYCSRPDTYAYNIFPHTASHGAFNYRGQGTLVTVSS
notes: Autonomous humanised VH domain (DotBody), from the 16C2.1-based library with heat challenge; E. coli, ATG codon 5' (possible initiator Met), 3' hexahistidine tag; also called DotBody 21D9.1
B3: 21A8.1 (VHH)
VHH: EVQLVESGGGLVQPGGSLRLSCAISGFSVDATDIDWVRQAPGKGLEWVARIFSPSGFTDYADSVKGRFTISADTSKNTVYLQMNSLRAEDTAVYYCDRPEFYAYNIFHDPRTVPAGNYRGQGTLVTVSS
notes: Autonomous humanised VH domain (DotBody), from the 16C2.1-based library with heat challenge; E. coli, ATG codon 5' (possible initiator Met), 3' hexahistidine tag; also called DotBody 21A8.1
B4: 20A2.1 (VHH)
VHH: EVQLVESGGGLVQPGGSLRLSCAISGFPLADTDIDWVRQAPGKGLEWVARIFSSYGSTDYADSVKGRFTISADTSKNTVYLQMNSLRAEDTAVYYCGRSDSIAYNIILPASTYSSRDYRGQGTLVTVSS
notes: Autonomous humanised VH domain (DotBody), from the 16A2.1-based library with heat challenge; E. coli, ATG codon 5' (possible initiator Met), 3' hexahistidine tag; also called DotBody 20A2.1
B5: 16A2.1 (VHH)
VHH: B4 VHH with P28A, D31E, Y55G, S57N, I106V, A110N, S114T, S115A
notes: E. coli, ATG codon 5' (possible initiator Met), 3' hexahistidine tag; also called anti-VEGF DotBody 16A2.1; clone 16A2.1
B6: 20A3.1 (VHH)
VHH: EVQLVESGGGLVQPGGSLRLSCAISGFSLADTDIDWVRQAPGKGLEWVARIFSSSGSTYYADSVKGRFTISADTSKNTVYLQMNSLRAEDTAVYYCDRADSVGYNVIFPGSTYSRSGYRGQGTLVTVSS
notes: Autonomous humanised VH domain (DotBody), from the 16A2.1-based library with heat challenge; E. coli, ATG codon 5' (possible initiator Met), 3' hexahistidine tag; also called DotBody 20A3.1
B7: 21E6.1 (VHH)
VHH: EVQLVESGGGLVQPGGSLRLSCAISGFTLAATDIDWVRQAPGKGLEWVARIFTPTGFSDYADSVKGRFTISADTSKNTVYLQMNSLRAEDTAVYYCGIPELYAYNIFMDIPAYNDVYYRGQGTLVTVSS
notes: Autonomous humanised VH domain (DotBody), from the 16C2.1-based library with heat challenge; E. coli, ATG codon 5' (possible initiator Met), 3' hexahistidine tag; also called DotBody 21E6.1
B8: 21A1.1 (VHH)
VHH: EVQLVESGGGLVQPGGSLRLSCAISGFALATTDIDWVRQAPGKGLEWVARIFNPSDFTDYADSVKGRFTISADTSKNTVYLQMNSLRAEDTAVYYCGRPAVYGYNIFLDSPTYDASQYRGQGTLVTVSS
notes: Autonomous humanised VH domain (DotBody), from the 16C2.1-based library with heat challenge; E. coli, ATG codon 5' (possible initiator Met), 3' hexahistidine tag; also called DotBody 21A1.1
B9: 16A2.1x2 (VHH)
chain: SEVQLVESGGGLVQPGGSLRLSCAISGFALAETDIDWVRQAPGKGLEWVARIFSSGGNTDYADSVKGRFTISADTSKNTVYLQMNSLRAEDTAVYYCGRSDSIAYNVILPNSTYTARDYRGQGTLVTVSSGGGGSGGGGSGGGGSGGGGSGGGGSGGGGSGGGGSEVQLVESGGGLVQPGGSLRLSCAISGFALAETDIDWVRQAPGKGLEWVARIFSSGGNTDYADSVKGRFTISADTSKNTVYLQMNSLRAEDTAVYYCGRSDSIAYNVILPNSTYTARDYRGQGTLVTVSSHHHHHH
notes: Tandem of two 16A2.1 VH domains in one chain; 'produced in the same way' as the single clones (E. coli, ATG codon 5', 3' hexahistidine tag); also called bivalent molecule 16A2.1x2; bivalent 16A2.1x2 molecule
B10: 13A6 (VHH)
VHH: EVQLVESGGGLVQPGGSLRLSCAISGFSLAATDIDWVRQAPGKGLEWVARIFPSAGSTDYADSVKGRFTISADTSKNTVYLQMNSLRAEDTAVYYCGRSDSYSYNVFLHNPTYTALDYRGQGTLVTVSS
notes: Autonomous humanised VH domain (DotBody); also called anti-VEGF DotBody 13A6; clone 13A6
B11: 16A6.1 (VHH)
VHH: B10 VHH with S54F, A55S, A61T, N110D, T112A
notes: E. coli, ATG codon 5' (possible initiator Met), 3' hexahistidine tag; also called clone 16A6.1

Positions count from the first letter of the chain named.

In the first assay the target is T1, Human VEGF-121 (Acro Biosystems). Kind of assay: competitive ELISA, inhibition of VEGF-121 (0.5 nM) binding to coated VEGFR1 (FIG. 5). The procedure: (§1) To perform the competitive ELISA, the VEGFR1 was immobilized at a concentration of 2 μg/mL onto a Maxisorp 96-well plate (Thermo Scientific) overnight at 4° C., washed three times with PBS and blocked for 1 h at RT with ELISA Block Buffer (EBB: 0.2% BSA in PBST). […] The samples were incubated for 2 h at RT, and 50 μL transferred onto the VEGFR1-coated plate. After 2 h incubation, the plate was washed 3 times with PBST. 50 μL of streptavidin-HRP conjugate (Thermo Scientific) was added at a 1:5,000 dilution in EBB, and incubated for 1 h at RT. The plate was washed 5 times with PBST, and developed with 50 μL 3,3′,5,5′-Tetramethylbenzidine (TMB) substrate (GeneTex). After 5-15 min, the reactions were stopped by adding 50 μL of 2M H₂SO₄, and signal was measured at an absorbance of 450 nm.
In general terms: ELISA stands for enzyme-linked immunosorbent assay.
Usually IC50 stands for the concentration that gives 50% inhibition. A higher IC50 goes with lower potency. B1 returned an IC50 of 1.4 nM.

B2 displayed an IC50 of 1 nM. The IC50 values of the last two molecules are within 1.5-fold of each other.

With B3, the IC50 was found to be 1.8 nM.

Regarding B4, the IC50 was determined as 1.6 nM.

Molecule B5 gave an IC50 of 3 nM. This IC50 lies about 1.9-fold higher than the previous one.

Molecule B6 displayed an IC50 of 0.9 nM.

B7 came in with a half-maximal inhibitory concentration (IC50) of 7.5 nM.

The molecule B8 gave an IC50 of 0.9 nM.

The next assay concerns the target T3, Biotinylated human VEGF-165 (Acro Biosystem) (human, UniProt P15692 207-395, biotinylated (site not stated)).
T3 construct: Bought protein; also called human VEGFA
Kind of assay: not stated at this place (BLI in Example 10). On the procedure: (§2) Binding characterization was performed using BLI (Satorius) at RT with a 1000 rpm flow-rate. Biotinylated human VEGF-165 (Acro Biosystem) was immobilized onto Streptavidin-coated tips at a concentration of 3 μg/mL for 60 sec in BLI buffer (0.1% BSA and 0.01% Tween-20 in PBS). After a 30 sec baseline, anti-VEGFA DotBodies were associated at 8 different concentrations, including a blank reference, in BLI buffer for 60 sec, followed by a 400 sec dissociation in BLI buffer. The background buffer signal was subtracted using the 0 nM concentration reference, and the kinetics of binding were calculated using a global fit following a 1:1 binding model, using BLI Analysis Software. The bivalent molecule 16A2.1x2 was also characterized as described here, but with a 600 sec dissociation. To characterize the binding of all the clones against murine VEGFA, the same procedure was employed, but the immobilized target was replaced with biotinylated murine VEGF-164 (Acro Biosystem).
As usually defined, the Kd is a measure of binding affinity in units of concentration. Higher therefore signals a looser complex. Consider B5, for which the Kd is less than 5 nM.

A further assay deals with T3, Biotinylated human VEGF-165 (Acro …). Kind of assay: BLI, biotinylated antigen on streptavidin tips, 600 sec dissociation, 1:1 global fit. The procedure: as §2
(In BLI a coated tip is dipped into the sample, and binding shifts an interference pattern.)
The term koff denotes the first-order rate constant of dissociation. Low readings indicate a long-lived complex, high ones a short-lived complex. What is called kon is the second-order rate constant of association. A higher kon goes with fast association. The molecule B9 displayed a Kd of 0.301 nM, a koff of 0.000128 s⁻¹ and an association rate constant (kon) of 426000 M⁻¹ s⁻¹.

The target is the same in the next assay. Kind of assay: BLI, biotinylated antigen on streptavidin tips, 1:1 global fit. On the procedure:
as §2
On to B1, for which the Kd was found to be 2.8 nM, the koff came to 0.000802 s⁻¹ and the kon came to 286000 M⁻¹ s⁻¹.

The molecule B2 registered an equilibrium dissociation constant (Kd) of 20.5 nM, a koff of 0.00099 s⁻¹ and a kon of 48200 M⁻¹ s⁻¹.

As for B3, the affinity, expressed as Kd, was 20 nM; the koff was 0.00118 s⁻¹; the kon amounted to 58000 M⁻¹ s⁻¹.

B4: the Kd is 5.54 nM, the off-rate (koff) was 0.00055 s⁻¹ and the kon was determined as 97700 M⁻¹ s⁻¹.

Turning to B10, binding was characterised by a dissociation constant (Kd) of 38.9 nM, the koff was 0.00475 s⁻¹ and the kon was 122000 M⁻¹ s⁻¹.

The molecule B5 gave a Kd of 2.5 nM, a koff of 0.000986 s⁻¹ and a kon of 394000 M⁻¹ s⁻¹.

B11 yielded a Kd of 14.7 nM, an off-rate constant (koff) of 0.00136 s⁻¹ and a kon of 92400 M⁻¹ s⁻¹.

With B6, the Kd was 2.78 nM, the koff worked out at 0.000725 s⁻¹ and the kon amounted to 260000 M⁻¹ s⁻¹.

For B7, the equilibrium dissociation constant (Kd) was found to be 6.3 nM, the koff worked out at 0.000442 s⁻¹ and the kon came out at 69600 M⁻¹ s⁻¹.

For the molecule B8, the Kd was 11.3 nM, the off-rate constant (koff) was 0.00103 s⁻¹ and the kon was 91500 M⁻¹ s⁻¹.

For the next assay, the target named is T2, Biotinylated murine VEGF-164 (Acro …). The assay is described as above. On the procedure: as §2
Take B1: binding was put at a Kd of 8.34 nM, the koff came to 0.00169 s⁻¹ and the kon came out at 205000 M⁻¹ s⁻¹.

As for B2, binding was put at a Kd of 41.7 nM, the koff came out at 0.00243 s⁻¹ and the on-rate constant (kon) is 58000 M⁻¹ s⁻¹.

For the molecule B3, the Kd turned out to be 46.1 nM, the off-rate constant (koff) amounted to 0.00292 s⁻¹ and the kon amounted to 63400 M⁻¹ s⁻¹.

On to B4, for which the Kd was 10.2 nM, the off-rate constant (koff) stood at 0.00135 s⁻¹ and the on-rate constant (kon) was 132000 M⁻¹ s⁻¹.

In turn, B10 had an equilibrium dissociation constant (Kd) of 248 nM, a koff of 0.0104 s⁻¹ and a kon of 41900 M⁻¹ s⁻¹.

For B5, binding was characterised by a dissociation constant (Kd) of 16.6 nM, the koff amounted to 0.00193 s⁻¹ and the kon amounted to 116000 M⁻¹ s⁻¹.

In the case of B11, binding was put at a Kd of 18.4 nM, the koff was 0.00225 s⁻¹ and the kon is 122000 M⁻¹ s⁻¹.

For the molecule B6, the affinity, expressed as Kd, was 8.7 nM; the koff turned out to be 0.000889 s⁻¹; the kon is 102000 M⁻¹ s⁻¹.

Molecule B7 yielded a Kd of 14.2 nM, a koff of 0.00117 s⁻¹ and a kon of 82800 M⁻¹ s⁻¹.

The molecule B8 yielded a Kd of 13.8 nM, a koff of 0.00231 s⁻¹ and a kon of 167000 M⁻¹ s⁻¹.

The next assay addresses T1, Human VEGF-121 (Acro Biosystems). The assay is described as follows: competitive ELISA, inhibition of VEGF-121 (0.5 nM) binding to coated VEGFR1 (FIG. 4). On the procedure:
as §1
With B10, the IC50 worked out at 5900 nM.

In turn, B5 had an IC50 of 12.2 nM.

In the case of B11, the IC50 is 41.4 nM. This IC50 is about 3.4-fold higher than that of the molecule before.
